Tests used:
hLa R32A/K34A/K37A = molecular target: T1, hLa R32A/K34A/K37A (human, UniProt P05455 1-408, R32A;K34A;K37A); experiment: EMSA
T1 sequence: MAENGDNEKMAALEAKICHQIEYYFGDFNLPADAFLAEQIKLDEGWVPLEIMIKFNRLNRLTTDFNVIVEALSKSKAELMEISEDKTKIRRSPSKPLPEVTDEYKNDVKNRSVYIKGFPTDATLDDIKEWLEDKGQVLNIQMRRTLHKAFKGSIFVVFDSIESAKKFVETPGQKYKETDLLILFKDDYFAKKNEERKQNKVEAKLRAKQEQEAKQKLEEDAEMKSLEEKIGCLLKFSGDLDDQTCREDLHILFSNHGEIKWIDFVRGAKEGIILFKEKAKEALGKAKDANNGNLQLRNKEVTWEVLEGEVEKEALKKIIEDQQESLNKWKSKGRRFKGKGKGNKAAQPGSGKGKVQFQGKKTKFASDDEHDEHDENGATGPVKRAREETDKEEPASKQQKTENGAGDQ

human La (hLa) = molecular target: T2, human La (hLa) (human, UniProt P05455 1-408); experiment: competition
T2 sequence: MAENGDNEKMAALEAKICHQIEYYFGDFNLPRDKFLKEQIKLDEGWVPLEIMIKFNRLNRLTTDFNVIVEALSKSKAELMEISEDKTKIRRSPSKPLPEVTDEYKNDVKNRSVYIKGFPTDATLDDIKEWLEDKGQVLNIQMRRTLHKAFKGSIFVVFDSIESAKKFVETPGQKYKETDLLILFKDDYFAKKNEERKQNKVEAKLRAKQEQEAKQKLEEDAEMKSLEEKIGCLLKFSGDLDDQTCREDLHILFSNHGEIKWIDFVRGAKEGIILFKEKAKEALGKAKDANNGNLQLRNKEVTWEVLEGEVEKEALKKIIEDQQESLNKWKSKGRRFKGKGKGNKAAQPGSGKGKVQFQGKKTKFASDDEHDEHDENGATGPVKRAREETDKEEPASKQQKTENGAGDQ

hLa K86A/T87A/K88A = molecular target: T3, hLa K86A/T87A/K88A (human, UniProt P05455 1-408, K86A;T87A;K88A); experiment: EMSA
T3 sequence: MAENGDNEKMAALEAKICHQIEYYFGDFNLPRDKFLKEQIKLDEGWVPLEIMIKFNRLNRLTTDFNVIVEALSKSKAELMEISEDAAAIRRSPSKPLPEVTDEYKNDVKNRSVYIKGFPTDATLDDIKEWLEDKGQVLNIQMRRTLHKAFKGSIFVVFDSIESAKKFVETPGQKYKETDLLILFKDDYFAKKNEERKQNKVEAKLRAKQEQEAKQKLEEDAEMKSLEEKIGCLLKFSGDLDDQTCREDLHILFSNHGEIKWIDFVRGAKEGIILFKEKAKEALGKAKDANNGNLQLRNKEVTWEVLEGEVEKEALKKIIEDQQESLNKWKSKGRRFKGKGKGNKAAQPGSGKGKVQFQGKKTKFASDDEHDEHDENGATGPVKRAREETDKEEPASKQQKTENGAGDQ

| Binder | binding result (hLa R32A/K34A/K37A) | binding result (human La (hLa)) | binding result (hLa K86A/T87A/K88A) |
| --- | --- | --- | --- |
| AAAAAAAAAAAAAAAAAAAA (ssRNA) [A20] | binds | – | – |
| UUUUUUUUUUUUUUUUUUUU (ssRNA) [U20] | – | binds | – |
| UUUUUUUUUU (ssRNA) [U10] | binds | – | binds |

— publication PMC5934636
